Measurements from paper PMC5873240.

Tests used:
[1] = biological target: Kv7.2-hABCD; test: NMR spectra
[2] = biological target: Kv7.2-hAB[Δ6L]; test: NMR solution structure

| stoichiometry N [1] | stoichiometry N [2] | Substance |
| --- | --- | --- |
| 4 | – | Kv7.2-hABCD (domain or fragment) |
| – | 1 | calmodulin (from UniProt P0DP23 1-149) (natural protein) |
